Assay results reported in US20210277101A1 (UNIVERSIT LAVAL, published 2021).

What was measured:
S100A9 peptide C7a = biological target: T1, S100A9 peptide C7a (human); experiment: direct ELISA on coated peptides
T1 peptide: PGLGEGTP

S100A9 peptide C7 = biological target: T2, S100A9 peptide C7 (human); experiment: direct ELISA on coated peptides
T2 construct: also called 10 last amino acid of the C-terminal region of S100A9
T2 peptide: HKPGLGEGTP

[1] = biological target: T3, S100A9 C-term (C) peptide (human); experiment: dot blot on PVDF
T3 construct: also called C-terminal peptide
T3 peptide: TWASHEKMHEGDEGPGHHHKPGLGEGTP
Protocol: FIG. 7 illustrates that 6B4 recognizes the C-terminal peptide of S100A9. Recombinant S100A8 and S100A9 (1 μg), PBS1×, N-terminal (N), Hinge (H) and C-terminal (C) peptides (10 and 50 μg) were put onto PVDF membrane to perform dot blot analysis using the mAb 6B4.
A dot blot was first performed to verify the ability of the mAb 6B4 to recognize these regions of S100A9. Briefly, 1 μg of recombinant S100A9 or S100A8 (negative control), and 10 and 50 μg of S100A9 peptides were deposited on PVDF membrane. The dried membrane was then blocked with TBS/0.1% Tween/milk 5% 30 min at room temperature under gentle agitation and labelled with 1 μg/ml of 6B4 mAb for 1 hr at RT. The membrane was extensively washed with TBS/0.1% Tween, then labelled with goat anti-mouse ( 1/20 000) in blocking buffer for 1 hr at RT under gentle agitation. The membrane was then extensively washed and visualized by enhanced chemiluminescence (ECL) as described by the manufacturer (PerkinElmer).

Measured: binding result

B1: mouse monoclonal antibody 6B4 (antibody, IgG1, V domains shown)
VH: QVQLQQPGSELVRPGASVKLSCKASGYTFTTYWIHWVRQRPGQGLEWIGNIYPGGDSSNYDEKVKSRATLTVDTSSSTAYMQLSSLTSEDSAVYYCSRWGIWGQGTLVTVSA
VL: ENVLTQSPAIMSASPGEKVTMTCSARSSVSYVHWYQQKSNTSPKLWIYDTSKLASGVPGRFSGSGSGNSYSLTISSMEAEDVATYYCFQGSGYPLTFGAGTKLELK
notes: also called mAb 6B4; 6B4 mAb
binds: all assays above
